Test results: patent US20210347873A1 (SHANGHAI PHARMAEXPLORER, published 2021)

T1: human APRIL protein (human, UniProt O75888 105-250, limits assumed)
T1 construct: Bought protein; also called recombinant APRIL protein
T1 sequence (looked up): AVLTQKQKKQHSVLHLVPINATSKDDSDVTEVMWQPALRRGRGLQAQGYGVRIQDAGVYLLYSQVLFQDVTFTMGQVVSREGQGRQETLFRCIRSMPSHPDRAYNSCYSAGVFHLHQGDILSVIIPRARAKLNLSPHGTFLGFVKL


Tests used:
[1] = biological target: His-tagged extracellular domain of human BLyS protein (hBLyS-ECD), Ala134-Leu285 (human, UniProt Q9Y275 134-285); experiment: cell-based or functional assay
[2] = biological target: T1, human APRIL protein; experiment: ELISA, coated APRIL; antibody 13.3 nM
Protocol: (§1) To test whether the BLyS antibody cross-reacted with human APRIL protein, APRIL protein (purchased from R & D Systems) was first diluted to a final concentration of 1.0 μg/mL with PBS, and then 50 μL of which per well was aliquoted into a 96-well ELISA plate, and the plate was subsequently sealed with plastic film and incubated at 4° C. overnight. On the next day the plate was rinsed four times with the plate washing buffer [PBS buffer containing 0.0500 (v/v) Tween20] and a blocking solution [PBS buffer containing 0.05 (v/v) Tween20 and 1 (w/w) BSA] was added, then the protein was blocked at 37° C. for 2 hours. The blocking solution was removed and 100 μL per well of the lead antibodies prepared in Embodiment 1 and 2 were added in. After incubation for 1 hour at 37° C., the plate was rinsed four times with the plate washing buffer [PBS buffer containing 0.05 (v/v) Tween20]. HRP-labeled (horseradish peroxidase) secondary antibody (purchased from Sigma) was added in and incubated at 37° C. for 1 hour. The plate was then rinsed four times with the plate washing buffer [PBS buffer containing 0.050 (v/v) Tween20]. 100 μL of TMB substrate was aliquoted into each well and after incubation at room temperature for 5 minutes, 100 μL of stop solution (1.0 N HCl) was aliquoted into each well. A₄₅₀ₙₘ values were read via an ELISA plate reader (SpectraMax M5e purchased from Molecular Devices) and the results were shown in FIGS. 6A-6B and Table 11. […] As used herein, the IgG control is human IgG and the data in the table is GD number at 450 nm.

[3] = biological target: T1, human APRIL protein; experiment: ELISA, coated APRIL; antibody 2.67 nM
Protocol: as §1

[4] = biological target: T1, human APRIL protein; experiment: ELISA, coated APRIL; antibody 66.7 nM
Protocol: as §1

[5] = biological target: T1, human APRIL protein; experiment: ELISA, coated APRIL; antibody 0.107 nM
Protocol: as §1

[6] = biological target: T1, human APRIL protein; experiment: ELISA, coated APRIL; antibody 0.534 nM
Protocol: as §1

[7] = biological target: T1, human APRIL protein; experiment: ELISA, coated APRIL; antibody 0.0213 nM
Protocol: as §1

[8] = biological target: T1, human APRIL protein; experiment: ELISA, coated APRIL; antibody 0.00427 nM
Protocol: as §1

[9] = biological target: T1, human APRIL protein; experiment: ELISA, coated APRIL; antibody 0 nM (blank)
Protocol: as §1

[10] = biological target: T2, extracellular domain of human BLyS protein (hBLyS-ECD), His-tagged, Ala134-Leu285 (human, UniProt Q9Y275 134-285); experiment: SPR (Biacore), antibody captured by anti-human Fc, hBLyS-ECD as analyte
T2 construct: Expressed in HEK293 cells and purified on a Ni column; also called immunogen

Row | Kd [10] | koff [10] | kon [10] | Binder | mouse B lymphocyte proliferation stimulated by hBLyS-ECD (viable cell signal) at 0 nM antibody [1] | mouse B lymphocyte proliferation stimulated by hBLyS-ECD (viable cell signal) at 0.000256 nM antibody [1] | mouse B lymphocyte proliferation stimulated by hBLyS-ECD (viable cell signal) at 0.00128 nM antibody [1] | mouse B lymphocyte proliferation stimulated by hBLyS-ECD (viable cell signal) at 0.0064 nM antibody [1] | mouse B lymphocyte proliferation stimulated by hBLyS-ECD (viable cell signal) at 0.032 nM antibody [1] | mouse B lymphocyte proliferation stimulated by hBLyS-ECD (viable cell signal) at 0.16 nM antibody [1] | mouse B lymphocyte proliferation stimulated by hBLyS-ECD (viable cell signal) at 0.8 nM antibody [1] | mouse B lymphocyte proliferation stimulated by hBLyS-ECD (viable cell signal) at 4 nM antibody [1] | mouse B lymphocyte proliferation stimulated by hBLyS-ECD (viable cell signal) at 20 nM antibody [1] | mouse B lymphocyte proliferation stimulated by hBLyS-ECD (viable cell signal) at 100 nM antibody [1] | also measured
1 | 642 pM | 0.000211 s⁻¹ | 329000 M⁻¹ s⁻¹ | c20D1B6E9E5 (antibody, V domains shown) VH: EVQLQQSVAELVRPGASVKLSCTASDFNIKNTYIHWVKQRPEQGLEWIGRIDPVNGNTKYAPKFQDKATIIVDTYSNTAYLQLSSLASEDTAVYYCARWPITTIVATDWYFDVWGTGTTVTVSS VL: DVLMTQTQLALPVRLGEQASISCRSSQSIVNSNGNTYLEWYLQKPGQSPKLLIYKVSNRFSGVPDRFSGSGSGTDFTLKISRVEAEDLGVYYCFQGSHVPWTFGGGTKLEIK | – | – | – | – | – | – | – | – | – | – | –
2 | 147 pM | 4.89e-05 s⁻¹ | 334000 M⁻¹ s⁻¹ | c97E7B3F2 (antibody, V domains shown) VH: EVQLQQSGPELVKSGASVKISCKASGYTFTDHKMHWVKQSHGKSLEWIGYISPYNGGTGYNQKFKSKVTLTVDISSSTAYMELRSLTSEDSAVYYCARWGFYDVMDSWGQGTSVTVSS VL: DVLLTQTPLSLPVSLGDQASISCRSSQTIVHIIGDTYLEWYLQKPGQSPKLLIYKVSNRFSGVPDRFSGSGAGTDFTLKISRVEAEDLGVYYCFQGSHVPRTFGGGTKLEIK | – | – | – | – | – | – | – | – | – | – | –

Further lines, the binder ahead of its results:

Row | Binder | Kd [10] | koff [10] | kon [10] | mouse B lymphocyte proliferation stimulated by hBLyS-ECD (viable cell signal) at 0 nM antibody [1] | mouse B lymphocyte proliferation stimulated by hBLyS-ECD (viable cell signal) at 0.000256 nM antibody [1] | mouse B lymphocyte proliferation stimulated by hBLyS-ECD (viable cell signal) at 0.00128 nM antibody [1] | mouse B lymphocyte proliferation stimulated by hBLyS-ECD (viable cell signal) at 0.0064 nM antibody [1] | mouse B lymphocyte proliferation stimulated by hBLyS-ECD (viable cell signal) at 0.032 nM antibody [1] | mouse B lymphocyte proliferation stimulated by hBLyS-ECD (viable cell signal) at 0.16 nM antibody [1] | mouse B lymphocyte proliferation stimulated by hBLyS-ECD (viable cell signal) at 0.8 nM antibody [1] | mouse B lymphocyte proliferation stimulated by hBLyS-ECD (viable cell signal) at 4 nM antibody [1] | mouse B lymphocyte proliferation stimulated by hBLyS-ECD (viable cell signal) at 20 nM antibody [1] | mouse B lymphocyte proliferation stimulated by hBLyS-ECD (viable cell signal) at 100 nM antibody [1] | also measured
3 | humanized BLyS antibody h97A3C2H4-9 (antibody, human IgG1, V domains shown) VH: EVQLVESGGGLVQPGGSLRLSCAASGFTFSTYTMSWVRQAPGKRLEWVAYISYGGGSTSYPDTVKGRFTISRDNAKNSLYLQMNSLRAEDTAVYYCTRHVTVVENSMDYWGQGTTVTVSS VL: DILLTQSPDFQSVTPKEKVTITCRASQSIGTSIHWYQQKTDQSPKLLIKYVSESFSGTPSRFSGSGSGTDFTLTINSLEAEDAATYYCQQTHSWPWTFGGGTKVEIK | – | – | – | 3590 OD450 nm (as headed) | 3080 OD450 nm (as headed) | 3540 OD450 nm (as headed) | 2970 OD450 nm (as headed) | 2960 OD450 nm (as headed) | 2770 OD450 nm (as headed) | 1110 OD450 nm (as headed) | 217 OD450 nm (as headed) | 137 OD450 nm (as headed) | 127 OD450 nm (as headed) | –
4 | mouse-human chimeric BLyS antibody c97A3C2H4 (antibody, human IgG1, V domains shown) VH: EVKLVESGGGLVQPGGSLKLSCAASGFTFSTYTMSWVRQTPEKRLEWVAYISYGGGSTSYPDTVKGRFTISRDNAKNTLYLQMSSLKSEDTAIYYCTRHVTVVENSMDYWGQGTSVTVSS VL: DILLTQSPDILSVSPGERVSFSCRASQSIGTSIHWYQQRTNGSPRLLIKYVSESFSGTPSRFSGSGSGTAFTLTINSVESEDIADYYCQQTHSWPWTFGGGTKLEIK | – | – | – | 3450 OD450 nm (as headed) | 3110 OD450 nm (as headed) | 2900 OD450 nm (as headed) | 3050 OD450 nm (as headed) | 2960 OD450 nm (as headed) | 2890 OD450 nm (as headed) | 429 OD450 nm (as headed) | 223 OD450 nm (as headed) | 159 OD450 nm (as headed) | 169 OD450 nm (as headed) | –
5 | humanized BLyS antibody h8E7D9C7F5-1 (antibody, human IgG1, V domains shown) VH: EVQLVQSGAEVKKPGASVKVSCKASGYTFTSYGISWVRQAPGQGLEWMGEIYPRSGNTYYNEKFKGRVTMTTDTSTSTAYMELRSLRSDDTAVYYCARSGPITTLVATDYGMDYWGQGTTVTVSS VL: DIVMTQSPDSLAVSLGERATINCRASKSVSTSSYSYMHWYQQKPGQPPKLLIKFASNLESGVPDRFSGSGSGTDFTLTISSLQAEDVAVYYCQHSREFPYTFGGGTKVEIK | – | – | – | 3480 OD450 nm (as headed) | 3000 OD450 nm (as headed) | 3120 OD450 nm (as headed) | 3200 OD450 nm (as headed) | 2970 OD450 nm (as headed) | 2730 OD450 nm (as headed) | 951 OD450 nm (as headed) | 209 OD450 nm (as headed) | 152 OD450 nm (as headed) | 131 OD450 nm (as headed) | –
6 | 20D1B6E9E5 (antibody, V domains shown) VH: EVQLQQSVAELVRPGASVKLSCTASDFNIKNTYIHWVKQRPEQGLEWIGRIDPVNGNTKYAPKFQDKATIIVDTYSNTAYLQLSSLASEDTAVYYCARWPITTIVATDWYFDVWGTGTTVTVSS VL: DVLMTQTQLALPVRLGEQASISCRSSQSIVNSNGNTYLEWYLQKPGQSPKLLIYKVSNRFSGVPDRFSGSGSGTDFTLKISRVEAEDLGVYYCFQGSHVPWTFGGGTKLEIK | – | – | – | – | – | – | – | – | – | – | – | – | – | OD450 nm [2]: 0.257; OD450 nm [3]: 0.0775; OD450 nm [4]: 0.942; OD450 nm [5]: 0.0543; OD450 nm [6]: 0.0611; OD450 nm [7]: 0.0546; OD450 nm [8]: 0.0535; OD450 nm [9]: 0.055
7 | 8E7D9C7F5 (antibody, V domains shown) VH: QVQLQQSGVELARPGASVKLSCKASGYTFTSYGISWVKQRTGQALEWIGEIYPRSGNTYYNEKFKGKATLTADKSSSTAYMELRSLTSEDSAVYFCARSGPITTLVATDYGMDYWGQGTSVTVSS VL: DIVLTQSPASLAVSLGQRATISCRASKSVSTSSYSYMHWYQQKPGQPPKLLIKFASNLESGVPARFSGSGSGTDFTLNIHPVEEEDAATYYCQHSREFPYTFGGGTKLEIK | – | – | – | – | – | – | – | – | – | – | – | – | – | OD450 nm [2]: 0.116; OD450 nm [3]: 0.0703; OD450 nm [4]: 0.464; OD450 nm [5]: 0.0558; OD450 nm [6]: 0.0599; OD450 nm [7]: 0.0565; OD450 nm [8]: 0.0571; OD450 nm [9]: 0.0551
8 | mouse-human chimeric BLyS antibody c8E7D9C7F5 (antibody, human IgG1, V domains shown) VH: QVQLQQSGVELARPGASVKLSCKASGYTFTSYGISWVKQRTGQALEWIGEIYPRSGNTYYNEKFKGKATLTADKSSSTAYMELRSLTSEDSAVYFCARSGPITTLVATDYGMDYWGQGTSVTVSS VL: DIVLTQSPASLAVSLGQRATISCRASKSVSTSSYSYMHWYQQKPGQPPKLLIKFASNLESGVPARFSGSGSGTDFTLNIHPVEEEDAATYYCQHSREFPYTFGGGTKLEIK | – | – | – | 3640 OD450 nm (as headed) | 3310 OD450 nm (as headed) | 3360 OD450 nm (as headed) | 3020 OD450 nm (as headed) | 2950 OD450 nm (as headed) | 3200 OD450 nm (as headed) | 408 OD450 nm (as headed) | 187 OD450 nm (as headed) | 187 OD450 nm (as headed) | 116 OD450 nm (as headed) | –
9 | c89A2G5E7 (antibody, V domains shown) VH: QVQLKESGPGLVAPSQSLSITCTVSGLSLNSHDISWIRQPPGKGLEWLGVIWSGGGTKYNSAFMSRLSISKDNSKSQVFLKMNSLHTDDTAIYYCVRTPSMITYSAMDYWGQGTSVTVSS VL: EIVLTQSPALMAASPGEKVTITCSVSSSISSRNLHWYQQKSQTSPKAWIHATSNLASGVPVRFSGSGSGTSYSLTISSMEAEDAATYYCQQWSSYPLTFGSGTKLEIK | 85.7 pM | 1.82e-05 s⁻¹ | 213000 M⁻¹ s⁻¹ | – | – | – | – | – | – | – | – | – | – | –
